Patent publication US20090098608A1

How the values were obtained:
[1] = target: both N-terminal and C-terminal FLAG tagged proteins; assay: Western blot, serial dilutions
[2] = target: FLAG-mSIGN-R1.ECD (mouse) (UniProt Q9CS74); assay: Western blot, 293T lysate in two-fold dilutions
[3] = target: FLAG-mLangerin.ECD (mouse) (UniProt Q9CS74); assay: Western blot, purified protein in two-fold dilutions, 1 µg/ml antibody

| Substance | times better detection than mAb M2 [1] | fold fewer cells detectable than mAb M2 [2] | fold lower detectable amount than mAb M2 [3] | lowest amount of purified protein detected by Western blot [3] |
| --- | --- | --- | --- | --- |
| rat anti-FLAG mAb L5 (antibody) | 2 to 8 times | 8 fold | 4 fold | 25 ng |
| mouse anti-FLAG mAb M2 (ANTI-FLAG M2, Sigma-Aldrich) (antibody) | – | – | – | 100 ng |
